Data as given in the supplement of paper PMC9170038.

Tested on: MS2 coat protein
Assay: apparent KD of MS2 coat protein; designed switch direction (-1 OFF switch, 1 ON switch): -1; higher = weaker reporter binding
In short: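 Designed RNA switches with common flanks were transcribed on Illumina chips by stalled E. coli RNA polymerase and titrated with SNAP-549-labelled MS2 coat protein, from 0.7 or 1.5 nM doubling to 3 µM, in Tris-HCl pH 7.5 buffer with KCl, MgCl2, BSA, DTT, tRNA and Tween-20. Steps lasted 0.8–1.5 h (lowest) to 10–20 min (highest). Titrations ran without input, with 200 uM small-molecule ligand, or with an oligonucleotide input. Normalised cluster fluorescence was curve-fitted, and apparent KD is the per-design median over clusters.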

[1] = Eterna round: R95, input ligand: FMN 200 uM
[2] = Eterna round: R95, input ligand: microRNA oligo, concentration not stated
[3] = Eterna round: R95, input ligand: none
[4] = input ligand: microRNA oligo, concentration not stated

AAACGCAGAGGAUAUACAUAUUUUCCUCAUGUGCAGCUUACACAUGAGGAUCACCCAUGUAGAAGGCUGGAAAA [EX2 A.29] (Eterna round: R97, puzzle: Exclusion 2)
apparent KD of MS2 coat protein (input ligand: FMN 200 uM): 0.3 µM | apparent KD of MS2 coat protein (input ligand: none): 0.0486 µM

GGUGCGUAUGUGAGGAUAUGCUGGUCCUUGGCUCGGCAGAAGGCACAUGAGGAUCACCCAUGUGGUGUCGUACG [salish99_Bmod_ex4_063] (puzzle: Brourd's mod of Exclusion 4)
apparent KD of MS2 coat protein [1]: 0.249 µM | apparent KD of MS2 coat protein [2]: 0.0365 µM | apparent KD of MS2 coat protein [3]: 0.0544 µM

AAGAAGAAGUAAGGAUAUGAAGAUCUGGUGGUGACAUGAGGAUCACCCAUGUGAAAACGAUAAGAUCAGAAGGUAUAAGAAGAA [AK ExNG2-3.2] (Eterna round: R96, puzzle: Exclusion NG 2)
apparent KD of MS2 coat protein (input ligand: FMN 200 uM): 0.0868 µM | apparent KD of MS2 coat protein [4]: 0.0484 µM | apparent KD of MS2 coat protein (input ligand: none): 0.0858 µM

UACAUGAGGAUCACCCAUGUUUUGUCGUGUAUGGUAUUUAUCUAGGAUAUCAAUCAAUUUAUUUAUGAGAAGGAGAAUAUUAAU [JMF's solution 49] (Eterna round: R96, puzzle: Exclusion NG 3)
apparent KD of MS2 coat protein (input ligand: FMN 200 uM): 0.0378 µM | apparent KD of MS2 coat protein [4]: 0.026 µM | apparent KD of MS2 coat protein (input ligand: none): 0.0338 µM

AAAGUGGGCCAGAACAUGAGGAUCACCCAUGUCUGAAAUAGCAAGGAUAUUACGAGCAAAAGGAGUAAGAAGGUGCACAGUACG [Eternabot solution 41] (Eterna round: R96, puzzle: Exclusion NG 3)
apparent KD of MS2 coat protein (input ligand: FMN 200 uM): 0.024 µM | apparent KD of MS2 coat protein [4]: 0.0154 µM | apparent KD of MS2 coat protein (input ligand: none): 0.0236 µM

CAUUGUGUUGAGGAUAUGCGCCGGCUCGCUGGCGCAGAAGGCGGCACAUGAGGAUCACCCAUGUCAGUUCGCGA [salish99_ex6_r004_416] (Eterna round: R97, puzzle: Exclusion 6)
apparent KD of MS2 coat protein (input ligand: FMN 200 uM): 0.452 µM | apparent KD of MS2 coat protein (input ligand: none): 0.038 µM

AGGCUGUCAGGAUAUCUGCGCCGUGGUGCGCGGCGUUAUAAAGAGAAGGGACAUGAGGAUCACCCAUGUCCUCA [EX4 B.25] (Eterna round: R97, puzzle: Exclusion 4)
apparent KD of MS2 coat protein (input ligand: FMN 200 uM): 0.0797 µM | apparent KD of MS2 coat protein (input ligand: none): 0.0194 µM

CUAGCGGAUGUAGGAUAUCGGACUGUUUCAGUCUGAGAAGGACAUGAGGAUCACCCAUGUAUUGCUGCGUGAGUAGCACGCUAG [JL ENG1 3.97] (Eterna round: R96, puzzle: Exclusion NG 1)
apparent KD of MS2 coat protein [4]: 0.0174 µM

UUUUAGUCAGGAUAUACAUGAGGAUCACCCAUGUAAACUUUUAGUUUAAUUUGAAUGUGUAGAAGGGACAUUUU [Ex3 #44] (Eterna round: R97, puzzle: Exclusion 3)
apparent KD of MS2 coat protein (input ligand: FMN 200 uM): 0.0343 µM | apparent KD of MS2 coat protein (input ligand: none): 0.0254 µM

GGUGCGUUUGUGAGGAUAUGCUGGUCCUUGGAUCAGCAGAAGGCACAUGAGGAUCACCCAUGUGGUGUCGUUCC [salish99_Bmod_Ex4_037] (puzzle: Brourd's mod of Exclusion 4)
apparent KD of MS2 coat protein [2]: 0.137 µM

GCACGGAGUGUAGGAUAUCUGUGCGAUUAGCUCAGAGAAGGACACAUGAGGAUCACCCAUGUGUUCCAGCGAAAGCUUCCGUGC [Eli exng1 - 047] (Eterna round: R96, puzzle: Exclusion NG 1)
apparent KD of MS2 coat protein (input ligand: FMN 200 uM): 0.00815 µM | apparent KD of MS2 coat protein [4]: 0.00932 µM | apparent KD of MS2 coat protein (input ligand: none): 0.0106 µM

GAAAACGCAGAGGAUAUUUCAGAUCAAAGCUGCAAAGAAGGCUGCACAUGAGGAUCACCCAUGUGGUCUUUAAA [Quesina] (Eterna round: R96, puzzle: Exclusion 6)
apparent KD of MS2 coat protein [4]: 0.016 µM

GCCGAAAGUGUGAGGAUAUACCUAUGGAUACAUAGGUAGAAGGCACAUGAGGAUCACCCAUGUGGGAAAACGGC [Eli bmx4 4.30] (Eterna round: R97, puzzle: Brourd's mod of Exclusion 4)
apparent KD of MS2 coat protein (input ligand: FMN 200 uM): 1.14 µM | apparent KD of MS2 coat protein (input ligand: none): 0.19 µM

AGUGCGUAUGUGAGGAUAUGCUGGUCCUUGGCUCGGCAGAAGGCACAUGAGGAUCACCCAUGUGGUGUCGUACU [salish99_Bmod_ex4_066] (puzzle: Brourd's mod of Exclusion 4)
apparent KD of MS2 coat protein [2]: 0.148 µM

UGAGUGCUGCGAGGAUAUACAUGAGGAUCACCCAUGUAAUCGUCUGAGGCAAAGCCUCAGACGAAGUAGAAGGCGCAGUACUCU [Mat - Exclusion NG 2 - Mod of JL - D26] (Eterna round: R96, puzzle: Exclusion NG 2)
apparent KD of MS2 coat protein (input ligand: FMN 200 uM): 0.0155 µM | apparent KD of MS2 coat protein [4]: 0.0115 µM | apparent KD of MS2 coat protein (input ligand: none): 0.0172 µM

CAGACACAUGAGGAUCACCCAUGUGAGGAUAUGCGUACGUUGUCCGUAGGCGACGUGCGCAGAAGGCGCAUAGG [JL-ex1-3.11 Eli mod] (puzzle: Exclusion 1)
apparent KD of MS2 coat protein [1]: 0.0517 µM | apparent KD of MS2 coat protein [2]: 0.0743 µM | apparent KD of MS2 coat protein [3]: 0.0501 µM

UAAUUACAUGAGGAUCACCCAUGUGAGGAUAUGUCCAUAUUCGGCAAAUCGGAUAUGGACAGAAGGCACACCGG [JR_Exclusion1_Sub009] (puzzle: Exclusion 1)
apparent KD of MS2 coat protein [2]: 0.0558 µM

GGUUUGCGGCAGGAUAUCCAUCCGCGGUGUGGUGGAGAAGGGCUGACAUGAGGAUCACCCAUGUGCGUCCUGGU [salish99_ex6_r4_021] (Eterna round: R97, puzzle: Exclusion 6)
apparent KD of MS2 coat protein (input ligand: FMN 200 uM): 0.0363 µM | apparent KD of MS2 coat protein (input ligand: none): 0.0218 µM

GACGACUCGUCAGGAUAUGUAAACGAGCAAUUGACAGAAGGGACACUGUCGAGGGUACACAUGAGGAUCACCCAUGUACUCGUC [Eternabot solution 40] (Eterna round: R96, puzzle: Exclusion NG 1)
apparent KD of MS2 coat protein (input ligand: FMN 200 uM): 0.0124 µM | apparent KD of MS2 coat protein [4]: 0.0103 µM | apparent KD of MS2 coat protein (input ligand: none): 0.0161 µM

GGAGAGAGAGGAUAUGGAGGAAAGAACAUGAGGAUCACCCAUGUAGAGCCUCAAGAUCGACCAGAAGGCUCAGUCC [AK-MS2ROC-r4-exclusion5-10] (Eterna round: R97, puzzle: Exclusion 5)
apparent KD of MS2 coat protein (input ligand: FMN 200 uM): 0.15 µM | apparent KD of MS2 coat protein (input ligand: none): 0.0275 µM

CAGUACUGAGGAUAUACAUGAGGAUCACCCAUGUCUUCCAGCUAGGAUACUAGCAAAUGUAGAAGGCAGUACUG [Mat - Exclusion 3 - Eli Mod - D9] (Eterna round: R97, puzzle: Exclusion 3)
apparent KD of MS2 coat protein (input ligand: FMN 200 uM): 0.428 µM | apparent KD of MS2 coat protein (input ligand: none): 0.0681 µM

UGCGUGUGAGGAUAUGCGCGUGGCGAUCUUAAGUUACGCAAGCAGAAGGCACAUGAGGAUCACCCAUGUGGCCA [Eternabot (L1) Solution 20] (Eterna round: R97, puzzle: Exclusion 4)
apparent KD of MS2 coat protein (input ligand: FMN 200 uM): 0.0985 µM | apparent KD of MS2 coat protein (input ligand: none): 0.0203 µM

ACAUGACUGCUAGGAUAUAGAUGACAUGAGGAUCACCCAUGUUAUCCCAUGUUGAUGGAAACCGACUAGAAGGAGCAGCAUAUG [Ex NG2 #10] (Eterna round: R96, puzzle: Exclusion NG 2)
apparent KD of MS2 coat protein (input ligand: FMN 200 uM): 0.0534 µM | apparent KD of MS2 coat protein [4]: 0.0243 µM | apparent KD of MS2 coat protein (input ligand: none): 0.033 µM

UUGAUGUGAGGAUAUAUAUGGUGGUUUUUUUAUUUUUUAUUACUUGAGGAUCACCCAAGUAGAAGGCGCUACGU [JR_Ex2_Sub069] (Eterna round: R97, puzzle: Exclusion 2)
apparent KD of MS2 coat protein (input ligand: FMN 200 uM): 0.0294 µM | apparent KD of MS2 coat protein (input ligand: none): 0.0393 µM

UAUAUGUCAGGAUAUCGAUUGGAAUGGAAUUUAGUUUUGGUUGAGAAGGGACAUGAGGAUCACCCAUGUUUUUC [EX4 #62] (Eterna round: R97, puzzle: Exclusion 4)
apparent KD of MS2 coat protein (input ligand: FMN 200 uM): 0.0767 µM | apparent KD of MS2 coat protein (input ligand: none): 0.0321 µM

CCCUCACUUGAGGAUCACCCAAGUCAGGAUAUCUCCCACCCGGCAACAACCGGGUGCCAGAGAAGGGACUCAAA [Xemaques] (Eterna round: R97, puzzle: Exclusion 1)
apparent KD of MS2 coat protein (input ligand: FMN 200 uM): 0.0179 µM | apparent KD of MS2 coat protein (input ligand: none): 0.017 µM

CAUGAUUGGCGAGGAUAUUGAUCUACAUGGCGACGAGAAGGCGCCUGUCACAUGAGGAUCACCCAUGUGAGUCUGGUGAAUGAG [Ex NG1 #85] (Eterna round: R96, puzzle: Exclusion NG 1)
apparent KD of MS2 coat protein (input ligand: FMN 200 uM): 0.0672 µM | apparent KD of MS2 coat protein [4]: 0.025 µM | apparent KD of MS2 coat protein (input ligand: none): 0.0426 µM

CGGUGUAACGUAGGAUAUCAACGCAACUGACGAUGAGAAGGACGACAUGAGGAUCACCCAUGUGAUUUCUCAAUAUUAUACAUC [Prohibition 86 - Jieux - Exclusion NG 1] (Eterna round: R96, puzzle: Exclusion NG 1)
apparent KD of MS2 coat protein (input ligand: FMN 200 uM): 0.339 µM | apparent KD of MS2 coat protein [4]: 0.0419 µM | apparent KD of MS2 coat protein (input ligand: none): 0.0634 µM

AAAAAGAGAGGAUAUACAACAAAACAAAACAAAACAAACACACAUGAGGAUCACCCAUGUAGAAGGCUCGAAAA [Exclusion 2 #2] (puzzle: Exclusion 2)
apparent KD of MS2 coat protein [1]: 0.0251 µM | apparent KD of MS2 coat protein [2]: 0.0165 µM | apparent KD of MS2 coat protein [3]: 0.0193 µM

ACACUGCGAGGAUAUACAUGAGGAUCACCCAUGUUAAGGAAGUCAAGGUUAAUUUAAGGUAGAAGGCGCGUAUU [JR_Ex3_Sub012] (Eterna round: R97, puzzle: Exclusion 3)
apparent KD of MS2 coat protein (input ligand: FMN 200 uM): 0.0546 µM | apparent KD of MS2 coat protein (input ligand: none): 0.0382 µM

UAAUUAAUAAGAUCAAUUAAUUAACAUGAGGAUCACCCAUGUGAGGAUAUCAGCUCGUUUAGAGCUGAGAAGGCACAAUAAUUA [ExNG3/17-C2] (Eterna round: R96, puzzle: Exclusion NG 3)
apparent KD of MS2 coat protein (input ligand: FMN 200 uM): 0.072 µM | apparent KD of MS2 coat protein [4]: 0.0416 µM | apparent KD of MS2 coat protein (input ligand: none): 0.0468 µM
